Test results taken from publication PMC10170298, “Differential regulation of ATP hydrolysis of RIG-I-like receptors by transactivation response RNA-binding protein”.

Target: T1, TRBP WT (nonphosphorylated) (UniProt Q15633 1-366)
T1 sequence: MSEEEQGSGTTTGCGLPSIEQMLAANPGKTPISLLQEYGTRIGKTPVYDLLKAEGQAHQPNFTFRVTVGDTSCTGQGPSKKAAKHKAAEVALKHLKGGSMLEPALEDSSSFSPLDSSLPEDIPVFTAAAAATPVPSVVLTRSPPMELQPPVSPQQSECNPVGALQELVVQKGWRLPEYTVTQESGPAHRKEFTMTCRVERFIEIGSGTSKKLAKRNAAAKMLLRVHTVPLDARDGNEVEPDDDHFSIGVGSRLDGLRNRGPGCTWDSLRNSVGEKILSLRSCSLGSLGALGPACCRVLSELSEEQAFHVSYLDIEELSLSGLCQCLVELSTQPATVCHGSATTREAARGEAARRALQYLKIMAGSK
Test: EMSA; 20 mM HEPES pH 7.5, 150 mM NaCl, 1.5 mM MgCl2, 2 mM DTT, 30 C, 30 min; dsRNA 60 nM, TRBP 0-400 pmol; 5% acrylamide gel
Details: protein: recombinant; label: none (SYBR Gold stain); blunt

B1: TMEV 45-mer dsRNA (dsRNA)
RNA 1: UUACUAUUGACACUAUGGCUUGCAAACAUGGAUACCCAGAUGUGU
RNA 2: ACACAUCUGGGUAUCCAUGUUUGCAAGCCAUAGUGUCAAUAGUAA
B1: binds.
